Laboratory results reported in US20070037211A1 (COUNCIL OF SCIENTIFIC AND INDUSTRIAL RESEARCH CSIR, published 2007).

How the values were obtained:
[1] = molecular target: Hsp16.3, 16 kDa alpha-crystallin like heat shock protein of Mycobacterium tuberculosis, recombinant 6xHis-tagged (Mycobacterium tuberculosis) (UniProt P9WMK1); assay: cell-based or functional assay
[2] = molecular target: Hsp16.3, 16 kDa alpha-crystallin like heat shock protein of Mycobacterium tuberculosis, recombinant 6xHis-tagged (Mycobacterium tuberculosis) (UniProt P9WMK1); assay: reverse phage ELISA on coated Hsp16.3, anti-M13-HRP, A405

Hsp16.3, 16 kDa alpha-crystallin like heat shock protein of Mycobacterium tuberculosis, recombinant 6xHis-tagged (Mycobacterium tuberculosis), sequence (P9WMK1 1-144, tags left off): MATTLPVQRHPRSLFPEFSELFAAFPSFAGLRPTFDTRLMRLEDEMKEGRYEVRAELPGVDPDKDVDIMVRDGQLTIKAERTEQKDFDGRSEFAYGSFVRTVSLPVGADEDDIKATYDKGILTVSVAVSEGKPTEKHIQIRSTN

Row | Substance | IC50 of inhibition of chaperon activity of Hsp16.3 (ADH heat aggregation assay, A360) [1] [µM] | aggregation of ADH restored in the presence of Hsp16.3 and 100 µM peptide (A360 at saturation) [1] [%] | fold binding over non-specific control BSA [2] [fold]
1 | synthetic peptide Seq ID 10 (Seq ID 9 with Gly-Gly-Gly-Ser at the C-terminal end), C-terminus amidated | 47 | 70 | –
2 | M13 phage clone displaying peptide Seq ID 9 (Lys-Met-His-Ala-Thr-Asn-His), from Ph.D.-7 library | – | – | 3
